Biological target: T1, ErbB2 (UniProt P04626 23-1255, limits assumed)
T1 construct: also called Her2; HER2
Test: not described (data not shown)

binding result: no binding
B1: Erbin1-693βgal, fusion protein containing the N-terminal 693 aa residues of Erbin and β-galactosidase (other, mouse, UniProt Q80TH2 1-693, looked up)
chain: MTTKRSLFVRLVPCRCLRGEEETVTTLDYSHCSLEQVPKEIFTFEKTLEELYLDANQIEELPKQLFNCQSLHKLSLPDNDLTTLPASIANLINLRELDVSKNGIQEFPENIKNCKVLTIVEASVNPISKLPDGFSQLLNLTQLYLNDAFLEFLPANFGRLTKLQILELRENQLKMLPKTMNRLTQLERLDLGSNEFTEVPEVLEQLSGLREFWMDGNRLTFIPGFIGSLRQLTYLDVSKNNIEMVEEGISTCENLQDFLLSSNSLQQLPETIGSLKNVTTLKIDENQLMYLPDSIGGLRSIEELDCSFNEIEALPSSIGQLTNMRTFAADHNYLQQLPPEIGNWKNITVLFLHCNKLETLPEEMGDMQKLKVINLSDNRLKNLPFSFTKLQQLTAMWLSDNQSKPLIPLQKETDTETQKMVLTNYMFPQQPRTEDVMFISDNESFNPALWEEQRKQRAQVAFECDEDKDEREAPPREGNLKRYPTPYPDELKNMVKTVQTIVHRLKDEETNEESGRDLKQHEDQQVVNKDKCVKTSESTTTKSKLDEREKYMNSVQKMSEPEAETNGGNLPVTASMKLSGNLKHIVNHDDVFEESEELSSDEEMKMAEMRPPLIESSINQPKVVALSNNKKDDAKDADSLSDEVTHNSNQNNSNCSSPSRMSDSVSLNTDSSQDTSLCSPVKQTPVDSNSKVR
notes: Expressed in erbin ΔC/ΔC mice; lacks residues 694-1450 of mouse Erbin, including the PDZ domain; not shown: β-galactosidase encoded by the inserted lacZ gene
